B1: HDV Ribozyme (parent)
chain: GGCCGGCAUGGUCCCAGCCUCCUCGCUGGCGCCGGCUGGGCAACAUUCCGAGGGGACCGUCCCCUCGGUAAUGGCGAAUGGGACCCA

Variants of B1 are the subject of the data set. As to the kind of experiment: self-cleavage, relative activity (ratio to wild type); higher = more cleavage; co-transcriptional.
Regarding GGCCGGCAUGGUCCCAGCCUCCUCGCUGGCGCCAGCUGGGCAGCAUUCCGAGGGGACCGUCCCCUCGGUAAUGGCGAAUGGGACCCA, the self-cleavage was determined as 0.125.
The result for GGCCGGCAUGGUCCCAGCCUCCUCGCUGGCGCGGGCUGGGCAACAUUCCGAGGGGACCGUCCCCUCGCUAAUGGCGAAUGGGACCCA reads 0.0875; that for GGCCGGCAUGGUCCCAGCCUCCUCGCUGGCGCCGGCUGGGCAACAUUCCGAGGGGACCGUCCCCUCGGUAUUGGCGAAUGGGACCCG, 0.831.
Turning to GGCCGGCAUGGUUCCAGCCUCCUCGCUGGCGACGGCUGGGCAACAUUCCGAGGGGACCGUCCCCUCGGUAAUGGCGAAUGGGACCCA, the self-cleavage is 0.172.
For GGCCGGCAUGGUCCCAGCCUCCUCGCUGGCGCCGGCUGGGCAACAUUCCGAGGGGACAGUCCCCUCGGUAAUGGCGAAUUGGACCCA the value was 0.21; for GGCCGGGAUGGUCCCAGCCUCCUCGCUGGCGCCGGCUGGGCAACAUUCCGAGGGGACCGUCCCCCCGGUAAUGGCGAAUGGGACCCA, 0.0831.
The result for GGCCGGCAUAGUCCCAGCCUCCUCGCUGGCGCCGGCUGGGCAACAUUCCGAGGGGACCGUCCCCUCGGUAAUGGCGAAUGGGUCCCA reads 0.322; that for GGCCGGCAUGGUCCCAGCAUCCUCGCUGGCGCCGGCUGGGCAACAUUCCGAGGGGACCGUCCCCUCGGUAAUGGCGAAUGUGACCCA, 0.133.
In the case of GGUCGGCAUGGUCCCAGCCUCCUCGCUGGCGCCGGCUGGGCAACAUUCCGAGGGGUCCGUCCCCUCGGUAAUGGCGAAUGGGACCCA, the self-cleavage came out at 0.861.
For GGCCGGCAUGGUCCCAGCCUCCUCGCUGGCGCCGGCUGGGCCACCUUCCGAGGGGACCGUCCCCUCGGUAAUGGCGAAUGGGACCCA the value was 0.0462; for GGCCGGCAUGGUCCCAGCCUCCUCGCUGGCGCCGGCUGGUCAACAUUCCGAGGGGACCGUCCCCUCGGUAAUGGGGAAUGGGACCCA, 0.166.
As to GGCCGGCAUGGUCCCAGCCUCCUGGCUGGCGCCGGCCGGGCAACAUUCCGAGGGGACCGUCCCCUCGGUAAUGGCGAAUGGGACCCA, the self-cleavage stood at 0.119.
For GGCCGGCAUGGUCCCAGCCUCCUCACUGGCGCCGGCUGGGCAACAUUCCGAGGGGACCGUCUCCUCGGUAAUGGCGAAUGGGACCCA, the self-cleavage worked out at 0.182.
For GGCCGGCAUGGUGCCAGCCUCAUCGCUGGCGCCGGCUGGGCAACAUUCCGAGGGGACCGUCCCCUCGGUAAUGGCGAAUGGGACCCA the value was 0.0361; for GGCCGGCAUGGUCCCAGCCUCCUCGCUGGCGCCGGCUGGGCAACAUUCCGAGGGGACGGCCCCCUCGGUAAUGGCGAAUGGGACCCA, 1.2.
For GGCCGGCAUGGUCCCAGCCUCCUCGCUGGCGCCGGCUGGGCAACAUUCCGAGGGGACCGUCCCCUCGGUAAUGGGGAAUGGGACCGA the value was 0.
Turning to GGCCGGCAUCGUCCCAGCCUCCUCGCUGGCGCCGGCUGGGCAACAUUCCGAGGGGACCGUCCUCUCGGUAAUGGCGAAUGGGACCCA, the self-cleavage is 1.03.
For the variant GGCCGGCAUUGUCCCAGCCUCCUCGAUGGCGCCGGCUGGGCAACAUUCCGAGGGGACCGUCCCCUCGGUAAUGGCGAAUGGGACCCA, the self-cleavage is 0.678.
Take GGCCGGCAUGGUCCCAGCCUCCUCGCUGGCGCCGGCUGGGCAACAUUCCGAGGGGACCGUCCCCUCGUUAAUGGAGAAUGGGACCCA: the self-cleavage was 0.234.
The result for GGCCGGCAUGGUCGCAGCCUCCUCGCUGGCGCCGGCUGGGCAACAUUCCGAGGGGACCGUCCCCUCGGUAAUUGCGAAUGGGACCCA reads 0.0755.
For GCCCGGCAUGGUCCCAGCCUCCUCGCUGGCGCCGGCUGGGCAACAUUCCGAGGGGACCGUCCCCUCGGAAAUGGCGAAUGGGACCCA the value was 0.0252; for GGCCGGCAUGGUCCCGGCCUCCUCGCUGUCGCCGGCUGGGCAACAUUCCGAGGGGACCGUCCCCUCGGUAAUGGCGAAUGGGACCCA, 0.0354; for GGCCGGCAUUGUCCCAGCCUCCUCGCUGGCGCCGGCUGGGCAACAUUCCGAGGGGACCGUCCCCUAGGUAAUGGCGAAUGGGACCCA, 0.895.
As for GGCCGGCAUGGUCCCAGCCUCCUCGCUGGCGCCGGCUGGGGAACAUUCCGAGGGGACCGUCCCCUCGGUAAUGGCGAAUGGGACCCC, the self-cleavage is 0.65.
The result for GGACGGCAUGGUCCCAGCCUCCUCGCUGGCGCCGGCUGGGCAACAUUCCGAGGGGACCGUCCCAUCGGUAAUGGCGAAUGGGACCCA reads 0.564; that for GGCCGGCAUGGUCCCAGCCUCCUCGCUGGCUCCGGCUGGGCAACAUUCCGAGGGGACCGUCCCCUCGGUAAUGGCGAGUGGGACCCA, 0.0811.
For GGCCGGCAUGGUCCCAGCCUCCUCGCUGGCGCCGGCUGGGCAGCAUUCCGAGGGGACCGUCCCCUCGGUAAUGGCGUAUGGGACCCA the value was 0.0504; for GGCCGGCAUGGUCCCAGCCUCCUCGCUGGCGCCGGCUGGGCAACAUUCCGAGGGGGCCGUCCCCUCGGUAAUGGCGAAGGGGACCCA, 0.65; for AGCCGGCAUGGUCCCAGCCUCCUCGCUGGCGCCGGCUGGGCAACAUUCCGAGGGGACCGUCCCCUCGGAAAUGGCGAAUGGGACCCA, 0.145.
For the variant GGCCGGCAUGGUCCCAGCCUCCUCGCUGGCGACGGCUGGGCCACAUUCCGAGGGGACCGUCCCCUCGGUAAUGGCGAAUGGGACCCA, the self-cleavage came to 0.162.
For GGCCGGCAUGGUACCAGCCUCCUCGCUGGCGCCGGCUGGGCAACAUUCCGAGGGGACAGUCCCCUCGGUAAUGGCGAAUGGGACCCA the value was 0.155; for GGCCGGCAUGGUCCCAGCCUCCUCGCUGGCGCCAGCUCGGCAACAUUCCGAGGGGACCGUCCCCUCGGUAAUGGCGAAUGGGACCCA, 0.166.

(Values after the RNAGym collection of RNA variant scans (doi:10.7554/elife.80360).)
